Assay results from article PMC4855518 (Nature, 2016).

Biological target: G. thermodenitrificans SecYE (Geobacillus thermodenitrificans NG80-2, UniProt A4IJK8;A4IJH4)
Assay: SEC

B1: nanobody AYC08 (VHH)
VHH: QVQLVETGGGLVQPGGSLRLSCGASGSIFNMYAMGWYRQAPGKQREVVARIATDDSTMYPDSVKGRFTISRDNAKNTVYLQMNSLKPEDTAVYYCYYQRTVMSQPYWGQGTQVTVSS
binding result: binds
